Biological target: HIV-1 gp120 fragment OD1 (HIV-1)
Experiment: SPR

B1: broadly neutralizing antibody b12 (antibody, V domains shown)
VH: QVQLVQSGAEVKKPGASVKVSCQASGYRFSNFVIHWVRQAPGQRFEWMGWINPYNGNKEFSAKFQDRVTFTADTSANTAYMELRSLRSADTAVYYCARVGPYSWDDSPQDNYYMDVWGKGTTVIVSS
VL: EIVLTQSPGTLSLSPGERATFSCRSSHSIRSRRVAWYQHKPGQAPRLVIHGVSNRASGISDRFSGSGSGTDFTLTITRVEPEDFALYYCQVYGASSYTFGQGTKLERK
- fold faster dissociation rate than on HXBc2 core gp120: ~15 fold

From article PMC2584968 (Nature, 2007)
